Biological target: SARS-CoV-2 Spike protein (Wuhan-1 isolate) on VSV pseudovirus particles (SARS-CoV-2) (UniProt P0DTC2)
Test: cell-based or functional assay

Substance | IC50 in pseudovirus assays [µg/mL]
REGN10987 (benchmark, human IgG1) (antibody) | 0.45
REGN10933 (benchmark, human IgG1) (antibody) | 0.67

— patent US20220251174A1
